The nanobody polyreactivity screen of Harvey et al. (2022)

experiment: yeast display, Sf9 membrane polyspecificity reagent, FACS + sequencing; frameworks hold sequencing errors
In short: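 In a synthetic yeast display library (Saccharomyces cerevisiae BJ5465), nanobody expression was induced with galactose for 36–48 hours. FACS gates were set low and high (top ~1%) using anti-HA fluorescence for expression and streptavidin fluorescence for binding of the Sf9 membrane reagent. Each polyreactivity label is drawn from the gate of origin.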

Row | Sequence | polyreactivity (PSR sort gate)
1 | QVQLVESGGGLVHAGGSLRLSCAASGSIFGWYAMGWYRQAPGKERELVASISWSGGGTYYADSVKGRFTISRDNAKNTVYLQMKSLKPEDTAVYYCAAVYIWRYGIRGGYYWGQGTQVSVSS | high polyreactivity
2 | QVQLVESRGGLVQAGGSLRLSFPDSGSTYVKNAMGWYRHAPGKERELVARISYSGGSTYADSVKGRFTISRDNAKNTVYLQMNSLKPEDSAVYYCNARTHNWWDGDGVYSQSLYDYWGQGTQVTVSS | low polyreactivity
3 | QVQLVESGGGLVQAGGSLRLSCAASGFTSPIYAMGWYRQAPGKERELVAVIDWSSGITYYADSVKGRFTISRDNAKNTVYLQMNSLKPEDTAVYYCAAEYRGRGWRYGYDYWGQGTQVTVSS | high polyreactivity
4 | QVQLVESGGGLVQAGGSLRLSCAASGSIFFYNAMGWYRQAPGKERELVAAITTRGGSTYYADSVKGRFTISRDNAMNTVYLQKNSLKPEDTAVYYCTADYYWTSLAMDSWGQGTQVTVSS | low polyreactivity
5 | QDQHVESGGGLVQAGGSLRLICDASGGIFGTNDMGWYRQAPGKERELVAAITSDSGATYYADSVKGRFTISRDNAKNTVYLQMNSLKPEDTAVYYCAAEDGPWFYRYGYWGQGTQVTVSS | low polyreactivity
6 | QDQLVESGGGLVQAGGSLRLSCAASGIILPRYAMGWYRQAPGKERELVAAISRGGGTYYADSVKGRFTISRDNAKNSVYLQMNSLKPEDTAFYYCDAAYVFVGSSHYYWGQGTQVTVSS | high polyreactivity
7 | QVQLVESGGGLVQAGGSLRLSCAASGRTLWLYAMGWYRQAPGKERELVAAITRSAGTTYYADSVKGRFTISRDNAKNTVYLQMNSLKPEDTAVYYCATRYPQSSLSTSSRSSSGYWGQGTQVTVSS | high polyreactivity
8 | QVQLVESGGGLVQAGGSLRLSCAASGSTFYRYAMGWYRQAPGKERELVAAITSAGSTNYADSVKGRFTISRDNGNNTVYLQMYSLKPVDTAVYYCAADHGRPYFSYDYWGQGSQVTVSS | low polyreactivity
9 | QVQLVESGGGLVQAGGSLRFSCAASGSTFYYYAMGWYRQAPGKERELVAAINTSGGITYYADSVKGRFTISRDNAKNTVYLQMNSLKPEDTAVYYCATQLWDRYGFGYWGQGTQVTVSS | high polyreactivity
10 | QVQLVETGGGLVQAGRSLRLSCAASGSNFRSYARGWYRQAPGKERELVAAITSSSGSTDYADSVKGRFTSSRDNAKNTVYLQMNSLKPEDTAVYYCNAPYWKSRFRAYYHWGQGTQVTVSS | high polyreactivity
11 | QVQIVESGGGLVQAGGSLRLSCAASGSIFTYNAMGWYRQAPGKERELVAAISYSGVRTYYADSVKGRFTISRDNAKNTVYLQMNSLKPEDTAVYYCNTRYPYSVLKYGYWGQGTQVTVSS | high polyreactivity
12 | QVQLVESGGGLVQAGGSLRLSCAASGSTFGWNAMGWYRQAPGKERELVAAISRSGGRTYYADSVKGRFTISRDNAKNTVYLQMNSLKPEDTAVYYCAADRSTTGGLRGYWGQGTQVTVSS | high polyreactivity
13 | QVQLVESGGGLVQAGGSLRLSCAASGLTFKYYTMGWYRQAPGKERELVADISRTGRTSYADSVKGRFTISRDNAKNTVYLQMNSLKPEDTAVYYCNALAGIAQRRTGYYNPGDYWGQGTQVTVSS | high polyreactivity
14 | QVQLVESGGGLVQAGGSLRLSCAASGSISVYNAMGWYRPAPGKERELVAAISWSGGRTSYADSVKGRFTISRDHAKNTVYLQMNSLKPEDTAVYYCAADELSVLWDEDYWGQVTQVTVSS | low polyreactivity
15 | QVQLEESGGGLLQAGGSLRLSCAASGSTFLRNAKGWYRQAPGKERELVATITISGGSTHYADSVKGRFTISRDNAKNTVYLPMNSLKPEDTAVYYCGTPRYPSYDYWGQGTQVTVSS | low polyreactivity
16 | QVQLVESGGGLVQAGGSLRLSCAASGFTFGYNAMGWYRQTPGKERELVAVITQSGGRTYYADSVKGRFTISRDNAKNTVYLQMNSLKPEDTAVYYCAARYRLPPYYYWGQGTQVTVSS | high polyreactivity
